Results on one molecule are retold here after US20240059770A1.

The target in the experiment is human glucose-dependent insulinotrophic polypeptide (GIP) (human). Kind of experiment: sandwich immunoassay (MSD ECL): C-Terminal Antibody as capture, ruthenium-labelled N-Terminal Antibody as detection.
Chain of human glucose-dependent insulinotrophic polypeptide (GIP) (human) (peptide, as listed by the source): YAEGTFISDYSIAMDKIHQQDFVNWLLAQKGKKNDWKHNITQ

B1: Anti-Human Oxyntomodulin N-Terminal Antibody (antibody, V domains shown)
VH: QIQLVQSGPELKKPGETVKISCKASGYTFTDYAFSWVKQAPGKGLKWMGWITTNTGEATYADDFKGRFAFSLETSASTAYLQISNLKNEDTATYFCARETEYGDSSWFGHWGQGTLVTVSA
VL: DIVLTQSPASLAVSLGQRATISCRASESVDGWGNSFMHWYQQKPGQPPKLLIYLATYRVAGIPARFSGSGSRTDFTLTINPVEADDVATYYCMQSSEDPYTFGGGTKLEIKR
Turning to B1, the percent cross-reactivity (ECL against human oxyntomodulin (53-89), blank subtracted) stood at 0.12%.
